Measurements from article doi:10.1101/2025.01.28.635311 (bioRxiv, 2025).
Values belong to the molecule of their own block, whether it stands above or below them.

How the values were obtained:
[1] = target: bovine histone H1, labelled with NT-647-NHS dye (bovine) (UniProt P02253); test: MST
[2] = target: N-terminal cleavage product of SET (human, UniProt Q01105-2 17-175); test: SEC

Chain of bovine histone H1, labelled with NT-647-NHS dye (bovine) (P02253 whole entry): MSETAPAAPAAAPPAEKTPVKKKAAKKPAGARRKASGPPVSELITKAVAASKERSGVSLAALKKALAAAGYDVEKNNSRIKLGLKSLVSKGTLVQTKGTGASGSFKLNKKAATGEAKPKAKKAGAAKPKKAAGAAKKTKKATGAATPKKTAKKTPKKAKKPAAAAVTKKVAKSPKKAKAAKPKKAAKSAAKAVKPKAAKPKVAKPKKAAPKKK

Kd [1]: 3000 nM
Molecule: SET-FL after cleavage by legumain (cleaved SET-FL) (from UniProt Q01105-2 17-175; Q01105-2 176-277) (complex)

binding result [2]: binds
Molecule: KASRKRQHEEPESFFTWFTDHSDAGADELGEVIKDDIWPNPLQYYLVPDM (domain or fragment, human, UniProt Q01105-2 176-225, looked up) [C-terminal cleavage product of SETΔC]

Second part, the molecule before the results:

Molecule: full-length SET (SET-FL, 2–277) (from UniProt Q01105-2 2-277) (natural protein)
Kd [1]: 3000 nM

B1: C-terminal cleavage product of SET-FL (domain or fragment, human, UniProt Q01105-2 176-277, looked up)
chain: KASRKRQHEEPESFFTWFTDHSDAGADELGEVIKDDIWPNPLQYYLVPDMDDEEGEGEEDDDDDEEEEGLEDIDEEGDEDEGEEDEDDDEGEEGEEDEGEDD
binding result [2]: binds
